Experimental findings from patent US20190270809A1 (FOURTH MILITARY MEDICAL UNIVERSITY, published 2019) are described below.

Where a chain is given by its changes, count along the chain named.

T1: human BASIGIN recombinant protein (human, UniProt P35613-2 22-205, limits assumed)
T1 construct: also called hBASIGIN
T1 sequence (looked up): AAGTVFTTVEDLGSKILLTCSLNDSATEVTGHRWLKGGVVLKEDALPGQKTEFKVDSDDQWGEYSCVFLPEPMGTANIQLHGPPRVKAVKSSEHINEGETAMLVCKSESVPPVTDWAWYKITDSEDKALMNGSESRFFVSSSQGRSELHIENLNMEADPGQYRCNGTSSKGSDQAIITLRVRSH

B1: humanized antibody HP6H8-3 (antibody, V domains shown)
VH: EVQLVESGGGLVQPGGSLKLSCAASGFTFSNFWMNWVRQAPGKGLEWVAEIRLKSNNYATHYAESVKGRFTISRDDSKNTLYLQMNSLKTEDTAVYYCTSYDYEYWGQGTLVTVSA
VL: DIQMTQSPSSLSASVGDRVTLTCKASENVGTYVSWYQQKPGQAPKLLIYGASNRYTGVPSRFTGSGSGTDFTLTISSLQPDDFATYYCGQSYSYPFTFGSGTKLEIK
notes: Derived from scFv clone 11242; also called WBP229-203; pCI-WBP229-203L/H
B2: humanized antibody HP6H8-1 (antibody, V domains shown)
VH: B1 VH with K19R, A49S
VL: B1 VL with S10T, T22S, Q42K, D81E
notes: Derived from scFv clone 11305; also called WBP229-205; pCI-WBP229-205L/H
B3: humanized antibody HP6H8-2 (antibody, V domains shown)
VH: B1 VH with K89R
VL: B1 VL with S9A, L21I, T22S, A43T, T63S
notes: Derived from scFv clone 11245; also called WBP229-204; pCI-WBP229-204L/H
B4: mouse monoclonal antibody HAb18GC2 (6H8) (antibody, V domains shown)
VH: EVKLEESGGGLVQPGGSMKLSCVASGFTFSNFWMNWVRQSPEKGLEWVAEIRLKSNNYATHYAESVKGRFTISRDDSKSSVYLQMNNLRTEDTGIYYCTSYDYEYWGQGTLVTVSA
VL: NIVMTQSPKSMSMSVGERVTLSCKASENVGTYVSWYQQKPEQSPKLLIYGASNRYTGVPDRFTGSGSATDFTLTISSVQAEDLADYHCGQSYSYPFTFGSGTKLEIK
notes: Mouse monoclonal from hybridoma CCTCC-C200636; also called mouse 6H8; Mouse monoclonal 6H8
B5: chimeric antibody c6H8 (antibody, V domains shown)
VH: B4 VH
VL: B4 VL
notes: Mouse 6H8 variable regions fused to a human constant region of IgG1 isotype; also called chimeric 6H8

The target of the first test is T1, human BASIGIN recombinant protein. The test can be described thus: SPR (ProteOn XPR36), human BASIGIN amine-coupled on chip, antibody as analyte. How it is done:
The affinity of the antibody was measured with ProteOn XPR36 (Bio-Rad). The GLC chip (Bio-Rad, 1765011) was activated with 0.04 M EDC+0.01 M sulfo-NHS (Bio-Rad). The human BASIGIN was diluted to […] with 10 mM NaAc (pH 4.5) and then injected onto the chip at the rate of 30 μl/min to couple the antigen with the activated chip via amino groups. Finally, the chip were inactivated with 1 M ethanolamine-HCl (Bio-Rad), and when the chip was rotated for 90 degrees, it was washed with a buffer (PBS/0.005% Tween 20) until the baseline was stable. Five cell culture supernatants containing scFv antibody and one negative control were injected on six horizontal channels, respectively, at feeding rate of 30 μl/min. The time for binding was set as 60 s and the time for dissociation was set as 900 s. The data were analyzed using the Kinetic-Langmuir model.
The binding affinity of the three humanized antibodies, the mouse antibody 6H8 and the chimeric antibody c6H8 were also determined by SPR (for detailed steps, please refer to the description in example 6), data were shown in Table 2.
For orientation: Kd means a measure of binding affinity in units of concentration. As usually defined, the koff is a measure of how fast the partners let go of each other. Broadly, the kon is the second-order rate constant of association. Take B1: the Kd was found to be 0.102 nM, the koff was 5.44e-05 s⁻¹ and the kon worked out at 531000 M⁻¹ s⁻¹.

With B2, the Kd worked out at 0.0905 nM, the koff came to 4.96e-05 s⁻¹ and the kon was determined as 548000 M⁻¹ s⁻¹.

As for B3, the Kd stood at 0.0583 nM, the koff came out at 3.6e-05 s⁻¹ and the on-rate constant (kon) stood at 618000 M⁻¹ s⁻¹.

In the case of B4, the equilibrium dissociation constant (Kd) amounted to 1.17 nM, the koff amounted to 6.64e-05 s⁻¹ and the association rate constant (kon) was 56600 M⁻¹ s⁻¹.

As for B5, the Kd turned out to be 0.452 nM, the koff is 5.81e-05 s⁻¹ and the kon was 128000 M⁻¹ s⁻¹.

For the next test the target is unchanged. The test can be described thus: ELISA, coated human BASIGIN recombinant protein, HRP-labelled goat anti-human light chain constant region secondary antibody, A450. Here is the method:
200 ng of human BASIGIN recombinant protein was coated in an ELISA plate and allowed to stand overnight at 4° C. The coated plate was blocked with 0.1% BSA at room temperature for 1 hour. Three antibodies obtained in example 8 along with the parental mouse monoclonal 6H8 and chimeric antibody c6H8 were each prepared into 5 solutions with gradient concentrations of 10, 100, 1,000, 10,000 and 100,000 ng/ml. 100 μl of each solution was added into individual wells and the plate was allowed to stand at room temperature for 1 hour. 100 μl of 1:4,000 diluted horseradish peroxidase-labeled goat anti-human light chain constant region as secondary antibody (Millipore) was added and allowed to stand at room temperature for 1 hour. The plates were then washed with 200 μl of 1×PBS buffer for 3 times, TMB substrate solution (50 μl/well) was added to each well to react for 10 min, and the stopping solution (2 M HCl, 50 μl/well) was added to terminate the reaction. The absorbance at 450 nm was read in an ELISA plate reader.
As usually defined, the EC50 (read off the curve) is the concentration needed to bring the measured effect to its halfway point. Take B4: the half-maximal effective concentration (EC50 (read off the curve)) is about 0.5 µg/mL.
